Laboratory results from the supplement of paper PMC5998384.

Key:
HeLa Kyoto [1] = assay: solubility change mitosis vs G1/S (difference of NP-40 vs SDS log2 ratios) (log2 ratio difference); higher = more soluble in mitosis
HeLa Kyoto [2] = assay: solubility in G1/S (NP-40 vs SDS abundance) (log2 ratio); higher = more soluble; conditions: cell cycle stage: G1/S
HeLa Kyoto [3] = assay: thermal stability score vs G1/S (z-score of summed log2 fold changes over temperatures); higher = more thermally stable than in G1/S
HeLa Kyoto [4] = assay: melting temperature (median over replicates), in situ; higher = more thermally stable
[5] = cell cycle stage: early G1 (4.5 h after nocodazole release)
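Wherever melting temperature (median over replicates), in situ is given: HeLa Kyoto cells synchronized by double thymidine or nocodazole block, proteins quantified by TMT10plex mass spectrometry, three independent biological replicates.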
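Wherever solubility change mitosis vs G1/S (difference of NP-40 vs SDS log2 ratios) is given: synchronized HeLa Kyoto cells (double thymidine block for G1/S, nocodazole release for mitosis), protein amounts in NP-40 versus SDS lysates quantified by mass spectrometry, three biological replicates.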
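Wherever solubility in G1/S (NP-40 vs SDS abundance) is given: HeLa Kyoto cells arrested at G1/S by double thymidine block, proteins quantified by TMT10plex mass spectrometry in mild NP-40 versus SDS extracts, three biological replicates.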
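Wherever thermal stability score vs G1/S (z-score of summed log2 fold changes over temperatures) is given: synchronized HeLa Kyoto cells, proteins quantified by TMT10plex mass spectrometry, three biological replicates, mitosis taken 0.5 h after nocodazole release, G1/S directly after double thymidine block.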

Chain of CHID1 (chain, as listed by the source): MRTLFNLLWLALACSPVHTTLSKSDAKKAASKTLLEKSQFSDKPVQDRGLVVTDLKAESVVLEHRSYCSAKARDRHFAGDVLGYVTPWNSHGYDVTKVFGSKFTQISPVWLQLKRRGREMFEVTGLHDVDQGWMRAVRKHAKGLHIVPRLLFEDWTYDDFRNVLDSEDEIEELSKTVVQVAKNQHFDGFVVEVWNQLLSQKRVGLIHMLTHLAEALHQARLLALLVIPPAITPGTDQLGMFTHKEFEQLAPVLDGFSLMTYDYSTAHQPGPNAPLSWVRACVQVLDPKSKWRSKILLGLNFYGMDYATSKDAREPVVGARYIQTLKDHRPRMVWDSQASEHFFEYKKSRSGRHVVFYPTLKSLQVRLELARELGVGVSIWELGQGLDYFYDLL

| Substance | solubility change mitosis (log2) (HeLa Kyoto [1]) | solubility in G1/S (log2) (HeLa Kyoto [2]) | thermal stability score (HeLa Kyoto [3]; [5]) | thermal stability score (HeLa Kyoto [3]; cell cycle stage: mitosis) | melting temperature (HeLa Kyoto [4]; cell cycle stage: G1/S) [°C] | melting temperature (HeLa Kyoto [4]; cell cycle stage: mitosis) [°C] |
| --- | --- | --- | --- | --- | --- | --- |
| MPRIMIKGGVWRNTEDEILKAAVMKYGKNQWSRIASLLHRKSAKQCKARWYEWLDPSIKKTEWSREEEEKLLHLAKLMPTQWRTIAPIIGRTAAQCLEHYEFLLDKAAQRDNEEETTDDPRKLKPGEIDPNPETKPARPDPIDMDEDELEMLSEARARLANTQGKKAKRKAREKQLEEARRLAALQKRRELRAAGIEIQKKRKRKRGVDYNAEIPFEKKPALGFYDTSEENYQALDADFRKLRQQDLDGELRSEKEGRDRKKDKQHLKRKKESDLPSAILQTSGVSEFTKKRSKLVLPAPQISDAELQEVVKVGQASEIARQTAEESGITNSASSTLLSEYNVTNNSVALRTPRTPASQDRILQEAQNLMALTNVDTPLKGGLNTPLHESDFSGVTPQRQVVQTPNTVLSTPFRTPSNGAEGLTPRSGTTPKPVINSTPGRTPLRDKLNINPEDGMADYSDPSYVKQMERESREHLRLGLLGLPAPKNDFEIVLPENAEKELEEREIDDTYIEDAADVDARKQAIRDAERVKEMKRMHKAVQKDLPRPSEVNETILRPLNVEPPLTDLQKSEELIKKEMITMLHYDLLHHPYEPSGNKKGKTVGFGTNNSEHITYLEHNPYEKFSKEELKKAQDVLVQEMEVVKQGMSHGELSSEAYNQVWEECYSQVLYLPGQSRYTRANLASKKDRIESLEKRLEINRGHMTTEAKRAAKMEKKMKILLGGYQSRAMGLMKQLNDLWDQIEQAHLELRTFEELKKHEDSAIPRRLECLKEDVQRQQEREKELQHRYADLLLEKETLKSKF [CDC5L] | 0.483 | -0.778 | 3.11 | 6.1 | 47.5 | 48.7 |
| MASRGRRPEHGGPPELFYDETEARKYVRNSRMIDIQTRMAGRALELLYLPENKPCYLLDIGCGTGLSGSYLSDEGHYWVGLDISPAMLDEAVDREIEGDLLLGDMGQGIPFKPGTFDGCISISAVQWLCNANKKSENPAKRLYCFFASLFSVLVRGSRAVLQLYPENSEQLELITTQATKAGFSGGMVVDYPNSAKAKKFYLCLFSGPSTFIPEGLSENQDEVEPRESVFTNERFPLRMSRRGMVRKSRAWVLEKKERHRRQGREVRPDTQYTGRKRKPRF [WBSCR22] | 0.0973 | -0.361 | 1.09 | 0.578 | 52.9 | 52.9 |
| MAARRALHFVFKVGNRFQTARFYRDVLGMKVESCSVARLECSGAISAHCSDYTRITEDSFSKPYDGKWSKTMVGFGPEDDHFVAELTYNYGVGDYKLGNDFMGITLASSQAVSNARKLEWPLTEVAEGVFETEAPGGYKFYLQNRSLPQSDPVLKVTLAVSDLQKSLNYWCNLLGMKIYEKDEEKQRALLGYADNQCKLELQGVKGGVDHAAAFGRIAFSCPQKELPDLEDLMKRENQKILTPLVSLDTPGKATVQVVILADPDGHEICFVGDEAFRELSKMDPEGSKLLDDAMAADKSDEWFAKHNKPKASG [GLOD4] | -0.012 | 0.42 | 0.704 | 0.532 | 50.8 | 50.9 |
| MIKLFSLKQQKKEEESAGGTKGSSKKASAAQLRIQKDINELNLPKTCDISFSDPDDLLNFKLVICPDEGFYKSGKFVFSFKVGQGYPHDPPKVKCETMVYHPNIDLEGNVCLNILREDWKPVLTINSIIYGLQYLFLEPNPEDPLNKEAAEVLQNNRRLFEQNVQRSMRGGYIGSTYFERCLK [UBE2M] | -0.0392 | 0.576 | -1.49 | -1.29 | 51.1 | 51.2 |
| MGPLPRTVELFYDVLSPYSWLGFEILCRYQNIWNINLQLRPSLITGIMKDSGNKPPGLLPRKGLYMANDLKLLRHHLQIPIHFPKDFLSVMLEKGSLSAMRFLTAVNLEHPEMLEKASRELWMRVWSRNEDITEPQSILAAAEKAGMSAEQAQGLLEKIATPKVKNQLKETTEAACRYGAFGLPITVAHVDGQTHMLFGSDRMELLAHLLGEKWMGPIPPAVNARL [GSTK1] | -0.098 | 0.121 | -1.28 | -0.907 | 50.9 | 52 |
| MGTVHARSLEPLPSSGPDFGGLGEEAEFVEVEPEAKQEILENKDVVVQHVHFDGLGRTKDDIIICEIGDVFKAKNLIEVMRKSHEAREKLLRLGIFRQVDVLIDTCQGDDALPNGLDVTFEVTELRRLTGSYNTMVGNNEGSMVLGLKLPNLLGRAEKVTFQFSYGTKETSYGLSFFKPRPGNFERNFSVNLYKVTGQFPWSSLRETDRGMSAEYSFPIWKTSHTVKWEGVWRELGCLSRTASFAVRKESGHSLKSSLSHAMVIDSRNSSILPRRGALLKVNQELAGYTGGDVSFIKEDFELQLNKQLIFDSVFSASFWGGMLVPIGDKPSSIADRFYLGGPTSIRGFSMHSIGPQSEGDYLGGEAYWAGGLHLYTPLPFRPGQGGFGELFRTHFFLNAGNLCNLNYGEGPKAHIRKLAECIRWSYGAGIVLRLGNIARLELNYCVPMGVQTGDRICDGVQFGAGIRFL [SAMM50] | -0.0834 | -0.348 | -2.61 | -4.33 | 56.1 | 54.6 |
| ZFC3H1 | 0.0411 | -0.247 | 0.428 | 0.858 | 49.3 | 49.9 |
| MEAQAQGLLETEPLQGTDEDAVASADFSSMLSEEEKEELKAELVQLEDEITTLRQVLSAKERHLVEIKQKLGMNLMNELKQNFSKSWHDMQTTTAYKKTHETLSHAGQKATAAFSNVGTAISKKFGDMSYSIRHSISMPAMRNSPTFKSFEERVETTVTSLKTKVGGTNPNGGSFEEVLSSTAHASAQSLAGGSRRTKEEELQC [TPD52L1] | 0.111 | 0.458 | -3.64 | -3.95 | 54.4 | 53.6 |
| MAVTITLKTLQQQTFKIRMEPDETVKVLKEKIEAEKGRDAFPVAGQKLIYAGKILSDDVPIRDYRIDEKNFVVVMVTKTKAGQGTSAPPEASPTAAPESSTSFPPAPTSGMSHPPPAAREDKSPSEESAPTTSPESVSGSVPSSGSSGREEDAASTLVTGSEYETMLTEIMSMGYERERVVAALRASYNNPHRAVEYLLTGIPGSPEPEHGSVQESQVSEQPATEAAGENPLEFLRDQPQFQNMRQVIQQNPALLPALLQQLGQENPQLLQQISRHQEQFIQMLNEPPGELADISDVEGEVGAIGEEAPQMNYIQVTPQEKEAIERLKALGFPESLVIQAYFACEKNENLAANFLLSQNFDDE [RAD23A] | 0.0994 | 0.0728 | -1.83 | -1.48 | 56.3 | 55.5 |
| SUCLG1 | -0.0912 | 0.168 | -0.306 | -0.375 | 50.8 | 50.9 |
| MAATLKSLKLVRYRAFCSPSAFGAVRSVSYWNVSSTQHGGQDPPEHISLCHSAKKVKNICSTFSSRRILTTSSAHPGLEFSKTSSSKASTLQLGSPRATGVDEEDVEVFDSFENMRVFLQLRPEYRVHSYNASETSQLLSVSEGELILHKVRVNQNNLQAQVIVDYLCKLSSLPAEQHPVLLGSTSFALLCQLSVKKIQLFDTQDLINVLKAFVILGIPHSHSMLDVYETKCCHQVWEMNMDQLLLVADLWRYLGRKVPRFLNIFSSYLNLHWKDLSLSQLVHLIYVIGENRQVSQDLMQKLESLILKYIDLINLEEVGTICLGFFKSSTNLSEFVMRKIGDLACANIQHLSSRSLVNIVKMFRFTHVDHINFMKQIGEIAPQRIPSLGVQGVMHLTLYCSALRFLNEGVMNAVAASLPPRVAHCRSKDVAKILWSFGTLNYKPPNAEEFYSSLISEIHRKMPEFNQYPEHLPTCLLGLAFLEYFPVELIDFALSPGFVRLAQERTKFDLLKELYTLDGTVGIECPDYRGNRLSTHLQQEGSELLWYLAEKDMNSKPEFLETVFLLETMLGGPQYVKHHMILPHTRSSDLEVQLDVNLKPLPFNREATPAENVAKLRLEHVGVSLTDDLMNKLLKGKARGHFQGKTESEPGQQPMELENKAAVPLGGFLCNVADKSGAMEMAGLCPAACMQTPRMKLAVQFTNRNQYCYGSRDLLGLHNMKRRQLARLGYRVVELSYWEWLPLLKRTRLEKLAFLHEKVFTSAL [FASTKD5] | -0.0689 | -0.184 | 0.139 | 1.05 | 49.5 | 49.8 |
| MQPDMSLNVIKMKSSDFLESAELDSGGFGKVSLCFHRTQGLMIMKTVYKGPNCIEHNEALLEEAKMMNRLRHSRVVKLLGVIIEEGKYSLVMEYMEKGNLMHVLKAEMSTPLSVKGRIILEIIEGMCYLHGKGVIHKDLKPENILVDNDFHIKIADLGLASFKMWSKLNNEEHNELREVDGTAKKNGGTLYYMAPEHLNDVNAKPTEKSDVYSFAVVLWAIFANKEPYENAICEQQLIMCIKSGNRPDVDDITEYCPREIISLMKLCWEANPEARPTFPGIEEKFRPFYLSQLEESVEEDVKSLKKEYSNENAVVKRMQSLQLDCVAVPSSRSNSATEQPGSLHSSQGLGMGPVEESWFAPSLEHPQEENEPSLQSKLQDEANYHLYGSRMDRQTKQQPRQNVAYNREEERRRRVSHDPFAQQRPYENFQNTEGKGTAYSSAASHGNAVHQPSGLTSQPQVLYQNNGLYSSHGFGTRPLDPGTAGPRVWYRPIPSHMPSLHNIPVPETNYLGNTPTMPFSSLPPTDESIKYTIYNSTGIQIGAYNYMEIGGTSSSLLDSTNTNFKEEPAAKYQAIFDNTTSLTDKHLDPIRENLGKHWKNCARKLGFTQSQIDEIDHDYERDGLKEKVYQMLQKWVMREGIKGATVGKLAQALHQCSRIDLLSSLIYVSQN [RIPK1] | -0.114 | 0.0577 | 0.9 | 1.82 | 48.4 | 48 |
| MASKGAGMSFSRKSYRLTSDAEKSRVTGIVQEKLLNDYLNRIFSSSEHAPPAATSRKPLNFQNLPEHLDQLLQVDNEEEESQGQVEGRLGPSTVVLDHTGGFEGLLLVDDDLLGVIGHSNFGTIRSTTCVYKGKWLYEVLISSQGLMQIGWCTISCRFNQEEGVGDTHNSYAYDGNRVRKWNVTTTNYGKAWAAGDIVSCLIDLDDGTLSFCLNGVSLGTAFENLSRGLGMAYFPAISLSFKESVAFNFGSRPLRYPVAGYRPLQDPPSADLVRAQRLLGCFRAVLSVELDPVEGRLLDKESSKWRLRGQPTVLLTLAHIFHHFAPLLRKVYLVEAVLMSFLLGIVEKGTPTQAQSVVHQVLDLLWLFMEDYEVQDCLKQLMMSLLRLYRFSPIVPDLGLQIHYLRLTIAILRHEKSRKFLLSNVLFDVLRSVVFFYIKSPLRVEEAGLQELIPTTWWPHCSSREGKESTEMKEETAEERLRRRAYERGCQRLRKRIEVVEELQVQILKLLLDNKDDNGGEASRYIFLTKFRKFLQENASGRGNMPMLCPPEYMVCFLHRLISALRYYWDEYKASNPHASFSEEAYIPPQVFYNGKVDYFDLQRLGGLLSHLRKTLKDDLASKANIVIDPLELQSTAMDDLDEDEEPAPAMAQRPMQALAVGGPLPLPRPGWLSSPTLGRANRFLSTAAVSLMTPRRPLSTSEKVKVRTLSVEQRTREDIEGSHWNEGLLLGRPPEEPEQPLTENSLLEVLDGAVMMYNLSVHQQLGKMVGVSDDVNEYAMALRDTEDKLRRCPKRRKDILAELTKSQKVFSEKLDHLSRRLAWVHATVYSQEKMLDIYWLLRVCLRTIEHGDRTGSLFAFMPEFYLSVAINSYSALKNYFGPVHSMEELPGYEETLTRLAAILAKHFADARIVGTDIRDSLMQALASYVCYPHSLRAVERIPEEQRIAMVRNLLAPYEQRPWAQTNWILVRLWRGCGFGYRYTRLPHLLKTKLEDANLPSLQKPCPSTLLQQHMADLLQQGPDVAPSFLNSVLNQLNWAFSEFIGMIQEIQQAAERLERNFVDSRQLKVCATCFDLSVSLLRVLEMTITLVPEIFLDWTRPTSEMLLRRLAQLLNQVLNRVTAERNLFDRVVTLRLPGLESVDHYPILVAVTGILVQLLVRGPASEREQATSVLLADPCFQLRSICYLLGQPEPPAPGTALPAPDRKRFSLQSYADYISADELAQVEQMLAHLTSASAQAAAASLPTSEEDLCPICYAHPISAVFQPCGHKSCKACINQHLMNNKDCFFCKTTIVSVEDWEKGANTSTTSSAA [RNF123] | 0.0631 | -0.366 | -0.758 | 0.258 | 50.4 | 50.3 |
| CHID1 | -0.0199 | -0.16 | 0.711 | 2.28 | 53.4 | 54 |
